Test results reported in patent US11613587B2, “Combination therapy of T cell activating bispecific antigen binding molecules and PD-1 axis binding antagonists” (Hoffmann-La Roche Inc., priority 2014, dated 2023).

Assays:
[1] = system: HEK cells transiently transfected with cyno FolR1; experiment: Cross-reactivity to cyno FolR1 on transfected HEK cells (flow cytometry); assay type: binding, cynomolgus; details: IgG
Text: FIGS. 4A-B depict graphs summarizing cross-reactivity of FolR1 binders to cyFoLR1. Cross-reactivity of the FolR1 antibodies to cyno FolR1 was addressed on HEK cells transiently transfected with cyFolR1 by flow cytometry.
New FolR1 binders were generated via Phage Display using either a Fab library or a common light chain library using the CD3 light chain. The identified binders were converted into a human IgG1 format and binding to FolR1 high expressing HeLa cells was addressed. As reference molecule the human FolR1 binder Mov19 was included. […] In a next step the selected clones were tested for specificity to human FolR1 by excluding binding to the closely related human FolR2. HEK cells were transiently transfected with either human FolR1 or human FolR2 to address specificity. […] Therefore these clones were excluded from further characterization. In parallel cross-reactivity of the FolR1 clones to cyno FolR1 was addressed by performing binding studies to HEK cells transiently transfected with cyno FolR1. […] Subsequently three human FolR1 specific cyno cross-reactive binders were converted into TCB format and tested for induction of T cell killing and T cell activation. […] As reference molecule Mov19 FolR1 TCB was included in all studies. These FolR1 TCBs were then used to compare induction of internalization after binding to FolR1 on HeLa cells.

human FolR1 = molecular target: T1, human FolR1 (Homo sapiens, UniProt P15328); experiment: SPR single injections of anti-FolR1 IgGs (Biacore T200); assay type: binding
T1 construct: the extracellular domain of the antigen linked to the hinge region of Fc-knob which is co-expressed with an Fc-hole molecule; made in house; host or cells: HEK293 EBNA
Text: The immobilization level was about 300-400 RU.

huFolR1-Fc = experiment: Epitope binning (SPR); assay type: binding, human; details: 500 nM huFolR1-Fc, 500 nM binder
Description: 500 nM huFolR1-Fc was then captured for 60 s, followed by 500 nM of the different binders for 30 s. The surface was regenerated with two injections of 10 mM glycine pH 2 for 30 s each.

[2] = system: erythrocytes (CD235a positive); experiment: Binding to erythrocytes (flow cytometry); design: species or system human

Row | Molecule | binding to cyno FolR1 [1] | dissociation from huFolR1 (human FolR1) | binding of analyte in solution to huFolR1 captured on immobilized 16D5 TCB (huFolR1-Fc) | binding of analyte in solution to huFolR1 captured on immobilized 21A5 TCB (huFolR1-Fc) | binding of analyte in solution to huFolR1 captured on immobilized Mov19 IgG (huFolR1-Fc) | binding to erythrocytes [2]
1 | 36F2: anti-FolR1 clone from generic multi-framework Fab library (Vk_3_20/VH_1_46) (antibody, V domains shown) VH: QVQLVQSGAEVKKPGASVKVSCKASGYTFTSYYMHWVRQAPGQGLEWMGIINPSGGSTSYAQKFQGRVTMTHDTSTSTVYMELSSLRSEDTAVYYCARSFFTGFHLDYWGQGTLVTVSS VL: EIVLTQSPGTLSLSPGERATLSCRASQSVSSSYLAWYQQKPGQAPRLLIYGASSRATGIPDRFSGSGSGTDFTLTISRLEPEDFAVYYCQQYTNEHYYTFGQGTKVEIK | bind comparably well human and cyno FoLR1 | dissociated rapidly from huFolR1 | + (+means binding) | + (+means binding) | − | 
2 | Mov19: reference human FolR1 binder, control IgG (antibody, V domains shown) VH: QVQLQQSGAELVKPGASVKISCKASGYSFTGYFMNWVKQSHGKSLEWIGRIHPYDGDTFYNQNFKDKATLTVDKSSNTAHMELLSLTSEDFAVYYCTRYDGSRAMDYWGQGTTVTVSS VL: DIELTQSPASLAVSLGQRAIISCKASQSVSFAGTSLMHWYHQKPGQQPKLLIYRASNLEAGVPTRFSGSGSKTDFTLNIHPVEEEDAATYYCQQSREYPYTFGGGTKLEIK |  |  | + (+means binding) | + (+means binding) | − | could not observe any specific binding
